From patent publication CN111410689A (UNIV CHONGQING TECHNOLOGY, dated 2020) come the findings set out here.

This test concerns the target T1, HPV18E7蛋白 (in HeLa cells and HPV18-positive cervical adenocarcinoma tissue) (HPV18, UniProt P06788 1-105).
T1 construct: whole, on cells; Native intracellular protein in cells, tissue sections or total lysate; also called HeLa细胞总蛋白中的HPV18E7蛋白
T1 sequence: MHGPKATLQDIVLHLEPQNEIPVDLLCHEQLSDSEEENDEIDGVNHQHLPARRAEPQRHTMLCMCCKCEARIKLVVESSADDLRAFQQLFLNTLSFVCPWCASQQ
The experiment in a line: immunocytochemistry on HeLa cells (HPV18 positive), DAB.

B1: 抗HPV16E7蛋白单抗69E2 (antibody, mouse IgG2a, kappa, V domains shown)
VH: QVQLQQSGPEVVRPGVSVKISCKGSGYTFTDYAMHWVKQSHAKSLEWIGVISTYNGNTNYNQKFKGKATVTVDKSSSTAYMELARLTSEDSAIYYCARRGFGNSWFAYWGQGTLVTVSA
VL: ENVLTQSPAIMSASPGGKVTMTCSASSGVSYMHWYQQKSSTSPKLWIYDTSNLASGVPGRFSGSGSGNSYSLTISSMEAEDVATYYCFQGSGYPFTFGSGTKLEIRR
notes: Mouse IgG2a from hybridoma, purified from ascites; also called HPV16E7-69E2; CCTCC NO:C2019181
Take B1: the binding result was “no binding (tested: 7.8125ng/孔到1μg/孔)”.
